Assay results published in patent US20240398964A1, “PEPTIDE FOR PENETRATING BLOOD-BRAIN BARRIER AND USE THEREOF” (NIBEC CO., LTD., priority 2021, published 2024).

Experiments:
[1] = Brain delivery of peptide-antibody complex in normal animals (IVIS organ fluorescence, Optix MX3 3D brain image); assay type: in vivo, hairless mouse (SKH-1); conditions: Cy5.5 labeled, intravenous 4 mg/kg; for fluorescence in the brain (IVIS): FIG. 4(a); for extent of penetration into the brain (three-dimensional image): Optix MX3, FIG. 4(b)
Protocol: Cy5.5 labeled SEQ ID NO: 17 peptide for penetrating the blood-brain barrier, Cy5.5 labeled SEQ ID NO: 59 antibody, and the complex of Cy5.5-labeled SEQ ID NO: 17 peptide for penetrating the blood-brain barrier and SEQ ID NO: 59 antibody were injected intravenously at 4 mg/kg each to hairless mouse (SKH-1, female, 6 weeks old, OrientBio), and fluorescence in each organ (brain, liver, lung, spleen, kidney, heart) was measured at excitation: 685 nm and emission: 706 nm using IVIS (Perkin Elmer). In addition, three-dimensional images of the brain alone were measured using Optix MX3 (ART Advanced Research Technologies Inc.).

[2] = Concentration in blood and brain tissue of peptide-antibody complex in normal animals (IVIS); assay type: in vivo, hairless mouse (SKH-1)
Protocol: The control cell permeability peptide (TAT) and antibody of SEQ ID NO: 59 were prepared in the same manner as the expression method in Example 2 and labeled with cy5.5. The complex of the peptide for penetrating the blood-brain barrier of SEQ ID NO: 41 in which CGGGG was introduced in N term and the antibody of SEQ ID NO: 59 prepared in Example 2 was labeled labeled with Cy5.5. The antibody of SEQ ID NO: 59 was labeled with Cy5.5 and injected intravenously into hairless mouse (SKH-1, female, 6 weeks old, OrientBio) at 10 mg/kg each. Concentrations in brain and blood were measured at excitation: 685 nm and emission: 706 nm using IVIS (Perkin Elmer) until day 24, and the results are shown in FIG. 5.

U87MG-Luc 2 glioblastoma = assay: Brain tumor animal model, bioluminescence and distribution at tumor site; assay type: in vivo, mouse; conditions: for bioluminescence of U87MG-Luc brain tumor cells: 1 mg/kg intravenous every 3 days, 4 doses, observed 16 days
Protocol: Using a brain tumor animal model, the ability of the complex of the peptide for penetrating the blood-brain barrier and antibody to penetrate the brain, inhibit brain tumors, and be distributed in the brain parenchyma was measured. Specifically, U87MG-Luc 2 (ATCC, HTB-14-LUC2™) cells, a luciferase-expressing U87MG glioblastoma, were cultured in DMEM medium supplemented with 10% FBS and 1% antibiotics. Nude 5- to 7-week-old mouse (Orient Bio) was anesthetized with isoflurane and immobilized using ear bars inside a stereotaxic instrument. After incising the scalp at the surgical site, a hole was made using a sterile drill 2 mm to the right to and 2 mm under the bregma. Then, 1.0×10^5/10 μL U87MG-Luc-2 cells were injected through the above hole with a 26G Hamilton syringe (1 μl/min), and after injection, the hole was closed with bone wax and sutured to close the scalp. The proliferation of transplanted glioblastoma was obtained by injecting D-luciferin potassium (15 mg/mL dissolved in PBS, sigma), a substrate of luciferase, at 150 mg/kg, to a mouse, and sacrificing it after 10 min, and measuring the bioluminescence using IVIS (Perkin Elmer), and the results are shown in FIG. 6.
Starting 4 days after glioblastoma transplantation, 1 mg/kg of the complex of CGGGG-SEQ ID NO: 41 peptide for penetrating the blood-brain barrier and SEQ ID NO: 59 antibody and 1 mg/kg SEQ ID NO: 59 antibody were injected intravenously. The administration interval between doses was every 3 days for a total of 4 doses for 16 days. […] FIG. 6 (a) is the photo of an IVIS observation of bioluminescence of U87MG-Luc cells on day 16. […] After 16 days of bioluminescence observation, the bioluminescence continued to increase in the glioblastoma transplanted and untreated group.
The complex of a peptide for penetrating the blood-brain barrier of CGGGG-SEQ ID NO: 41 labeled with cy5.5 and a SEQ ID NO: 59 antibody was administered to the same animal model 8 hours before sacrifice, and the brain was harvested. After frozen sectioning, the distribution of fluorescence was observed by confocal microscopy.

[3] = Cy5.5 labeled, intravenous 10 mg/kg

## VSRRRRRRRGGRRRRR-VPALR [SEQ ID NO: 17]
[1]
  fluorescence in the brain (IVIS): fluorescence could be observed in the brain
  extent of penetration into the brain (three-dimensional image): the extent of penetration into the brain was large

B1: complex of Cy5.5-labeled SEQ ID NO: 17 peptide for penetrating the blood-brain barrier and SEQ ID NO: 59 antibody: complex of SEQ ID NO: 17 blood-brain barrier penetrating peptide and SEQ ID NO: 59 … (conjugate)
chain 1: VSRRRRRRGGRRRRVPALR
chain 2: MAWVWTLLFLMAAAQSIQAEWIKQRPGQGLEWIGVIHPGNGGTNYNENFKGKATLTADKSSSTAYMQLSSLTSDDSAVYFCASGNDGSYWGQGTTVTVSSGGGGSGKGGSGGGGSGGGGSDIELTQSPSSLTVTAGEKVTMSCKSSQSLLNSGDQKIYLTWYQQKPGQPPKLLIYWASTRESGVPDRFTGSVSGTDFTLTISSVQAEDLAVYYCQNDYNYPYTFGGGTKCLEIKRGSENLYFQGGSGKPIPNPLLGLDSTGGSGGSHHHHHH
modifications: Cy5.5 label; conjugated complex
[1]
  fluorescence in the brain (IVIS): fluorescence could be observed in the brain
  extent of penetration into the brain (three-dimensional image): the extent of penetration into the brain was large

B2: complex of CGGGG-SEQ ID NO: 41 peptide for penetrating the blood-brain barrier and SEQ ID NO: 59 antibody: SEQ ID NO: 41 peptide with N-terminal linker CGGGG chemically conjugated to antibody of SEQ … (conjugate)
chain 1: VSRRRRRRGGRRRRHAIYPRH
chain 2: B1 chain 2
modifications: N-terminal CGGGG linker; chemical conjugation
[2]; 4 days after intravenous injection, 10 mg/kg
  fluorescence in brain tissue, % of the initial dose: approximately 7%
[2]; [3]
  blood levels compared with the antibody linked to TAT: higher
U87MG-Luc 2 glioblastoma
  bioluminescence of U87MG-Luc brain tumor cells: the bioluminescence caused by brain tumor cells decreased
U87MG-Luc 2 glioblastoma; cy5.5 labeled, administered 8 hours before sacrifice, FIG. 6(c)
  distribution of fluorescence in the brain (confocal, frozen sections): distributed in the area where the brain tumor occurred

B3: SEQ ID NO: 59 antibody: antibody represented by amino acid sequence of SEQ ID NO: 59, has therapeutic efficacy in glioblastoma (protein)
chain: B1 chain 2
[1]
  fluorescence in the brain (IVIS): fluorescence was not observed in the brain
  extent of penetration into the brain (three-dimensional image): observed to a lesser extent inside the brain
[2]; [3]
  fluorescence in brain tissue: no fluorescence was measured in brain tissue
[2]; Cy5.5 labeled, intravenous 10 mg/kg, measured until day 24
  time to clearance from the blood: ≤ 12 days
U87MG-Luc 2 glioblastoma
  bioluminescence of U87MG-Luc brain tumor cells: many brain tumor cells survived
